Results as given in patent publication US9920105B2, “Human ferritin-derived fusion polypeptide” (Kyungpook National University Industry-Academic Cooperation …, priority 2013, dated 2018).

B1: GG-AP1S: human ferritin light chain with AP1S (RKRLDRN) inserted in GG cassette of the fourth loop; named FTL-AP1 in Examples 6-9 (protein)
chain: MSSQIRQNYSTDVEAAVNSLVNLYLQASYTYLSLGFYFDRDDVALEGVSHFFRELAEEKREGYERLLKMQNQRGGRALFQDIKKPAEDEWGKTPDAMKAAMALEKKLNQALLDLHALGSARTDPHLCDFLETHFLDEEVKLIKKMGDHLTNLHRGSRKRLDRNGGPEAGLGEYLFERLTLKHD
modifications: left off: small tags and cut ends
B2: FTL-AP1_AP1: fusion polypeptide in which AP1S was additionally fused to N-terminal of FTL_GG-AP1S (protein)
chain: MRKRLDRNGGGSGMSSQIRQNYSTDVEAAVNSLVNLYLQASYTYLSLGFYFDRDDVALEGVSHFFRELAEEKREGYERLLKMQNQRGGRALFQDIKKPAEDEWGKTPDAMKAAMALEKKLNQALLDLHALGSARTDPHLCDFLETHFLDEEVKLIKKMGDHLTNLHRGSRKRLDRNGGPEAGLGEYLFERLTLKHD
modifications: left off: small tags and cut ends
B3: FTL-RGD-AP1: human ferritin light chain with inserted RGD and AP1 peptides (AP1 exchanged with RGD relative to FTL-AP1_RGD) (protein)
chain: MRGDGGGSGMSSQIRQNYSTDVEAAVNSLVNLYLQASYTYLSLGFYFDRDDVALEGVSHFFRELAEEKREGYERLLKMQNQRGGRALFQDIKKPAEDEWGKTPDAMKAAMALEKKLNQALLDLHALGSARTDPHLCDFLETHFLDEEVKLIKKMGDHLTNLHRGSRKRLDRNGGPEAGLGEYLFERLTLKHD
modifications: left off: small tags and cut ends
B4: FTL-GRGDSP-AP1: ferritin having inserted GRGDSP and AP1 peptides (protein)
chain: MGRGDSPGGGSGMSSQIRQNYSTDVEAAVNSLVNLYLQASYTYLSLGFYFDRDDVALEGVSHFFRELAEEKREGYERLLKMQNQRGGRALFQDIKKPAEDEWGKTPDAMKAAMALEKKLNQALLDLHALGSARTDPHLCDFLETHFLDEEVKLIKKMGDHLTNLHRGSRKRLDRNGGPEAGLGEYLFERLTLKHD
modifications: left off: small tags and cut ends
notes: ferritin having inserted GRGDSP and AP1 peptides

Tests used:
[1] = test system: A549 cells overexpressing IL-4 receptor; assay: Cell binding test using flow cytometry (FACS); format: cell-based, human
Protocol: First, A549 cells were grown to about 80% confluence in a 100 mm-diameter plate. The plated cells were washed twice with PBS, and detached from the plate using Trypsin/EDTA. Then, 2×10^5/100 μl cells were suspended in PBS containing 1% bovine serum albumin (BSA), and incubated at 4° C. for 30 min. […] The above blocking procedure was performed on one group, and was not performed on the other group, and the following experiment was performed on both groups. After washing twice with PBS, the ferritin without AP1 insertion and the AP1-inserted ferritin were diluted to 400 nM in buffer (20 mM Tris, 150 mM NaCl, 180 mM Histidine), and then allowed to bind at 4° C. for 20 min. After washing twice with PBS, the ferritin light chain antibody (D-18, sc-14420) was diluted to 1:400 in PBS buffer containing 1% BSA, and incubated in ice for 30 min. After washing twice with PBS, Alexa Fluor 488 donkey anti-goat IgG (H+L) antibody (invitrogen, USA) was diluted to 1:200 in PBS containing 1% BSA, and incubated in ice for 30 min. After washing twice with PBS, the cells were suspended in 500 ul PBS, and analyzed with FACS.
First, A549 cells were grown to about 80% confluence in a 100 φ plate. The plated cells were washed twice with PBS, and detached from the plate using Trypsin/EDTA. […] After washing twice with PBS, the cells were suspended in 500 ul PBS, and then analyzed with FACS.

[2] = test system: A549 cells overexpressing IL-4 receptor; assay: Cell binding test using confocal microscope; format: cell-based; details: 400 nM, 4° C., 20 min, FIG. 6
Protocol: First, A549 cells were grown to about 80% confluence in a 100 mm-diameter plate. The plated cells were washed twice with PBS, and detached from the plate using Trypsin/EDTA. Then, 2×10^5/100 ul cells were suspended in PBS containing 1% bovine serum albumin (BSA), and incubated at 4° C. for 30 min. After washing twice with PBS, the ferritin without AP1 insertion and the AP1-inserted ferritin were diluted to 400 nM in buffer (20 mM Tris, 150 mM NaCl, 180 mM Histidine), and then allowed to bind at 4° C. for 20 min. After washing twice with PBS, the ferritin light chain antibody (D-18, sc-14420) was diluted to 1:400 in PBS buffer containing 1% BSA, and incubated in ice for 30 min. After washing twice with PBS, Alexa Fluor 488 donkey anti-goat IgG (H+L) antibody was diluted to 1:200 in PBS containing 1% BSA, and then incubated in ice for 30 min. After washing twice with PBS, 4% paraformaldehyde (PFA) was added for cell fixation, and cells in suspension were added in the 8-well slide chamber. The cells were attached in the chamber by centrifugation at 1000 rpm for 10 min.
After washing twice with PBS, the cells were stained by incubation with 4′,6-diamidino-2-phenylindole (DAPI) for 3 min in dark place, mounted in antifade reagent to close a cover glass, and analyzed by Z-stack type confocal microscopy.

[3] = molecular target: T1, IL-4 receptor (Homo sapiens, UniProt P24394); assay: Surface plasmon resonance (SPR) analysis of binding affinity to immobilised IL-4 receptor; details: Table 4
T1 sequence (P24394 26-825): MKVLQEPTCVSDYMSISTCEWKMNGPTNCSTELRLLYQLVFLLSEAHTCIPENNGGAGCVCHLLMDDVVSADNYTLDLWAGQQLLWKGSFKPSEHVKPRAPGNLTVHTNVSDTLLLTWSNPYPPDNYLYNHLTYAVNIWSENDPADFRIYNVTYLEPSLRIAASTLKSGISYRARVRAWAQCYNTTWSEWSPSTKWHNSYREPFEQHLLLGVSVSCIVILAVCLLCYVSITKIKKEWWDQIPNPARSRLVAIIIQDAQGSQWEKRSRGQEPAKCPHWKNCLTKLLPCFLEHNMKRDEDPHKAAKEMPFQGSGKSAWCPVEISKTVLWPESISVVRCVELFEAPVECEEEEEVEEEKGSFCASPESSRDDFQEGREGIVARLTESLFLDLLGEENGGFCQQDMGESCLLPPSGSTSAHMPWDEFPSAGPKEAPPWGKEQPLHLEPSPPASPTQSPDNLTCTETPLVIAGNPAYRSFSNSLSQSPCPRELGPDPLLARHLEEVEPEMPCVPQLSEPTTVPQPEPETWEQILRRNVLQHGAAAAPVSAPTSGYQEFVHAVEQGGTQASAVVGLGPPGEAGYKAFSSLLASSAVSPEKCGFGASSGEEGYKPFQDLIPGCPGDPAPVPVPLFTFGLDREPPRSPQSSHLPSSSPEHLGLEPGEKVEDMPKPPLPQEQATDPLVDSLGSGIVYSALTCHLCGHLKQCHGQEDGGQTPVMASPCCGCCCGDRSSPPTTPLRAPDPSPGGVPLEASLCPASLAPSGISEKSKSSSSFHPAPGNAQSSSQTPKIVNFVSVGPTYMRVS
Protocol: (§1) Here, the right channel was used as a reference channel. In the two channels, left channel and right channel, 1M ethanolamine (pH 8.5) solution was allowed to flow over the unreacted surface for 7 min for blocking, so as to reduce non-specific adsorption thereof. All test procedures were conducted at a temperature of 25° C. and the flow rate was 25 ul/min.
The buffer (20 mM Tris-HCl pH 8.0, 150 mM NaCl, 180 mM Histidine, 62.5 ug/ml BSA, 0.005% Tween 20) was used through filtering and degassing. The wild type ferritin and the AP1-inserted ferritins were allowed to flow over at concentrations of 0.65 nM, 1.3 nM, 2.6 nM, 5.2 nM, 10.4 nM, 20.8 nM, and 41.6 nM for 3 min, and the same buffer was allowed to flow over for 3 min. For regeneration, 2 M NaCl was allowed to flow over for […] to wash the proteins remaining without dissociation. Specific binding values, obtained by subtracting the right channel value from the left channel value, in the concentration ranging from 0.65 nM to 10.4 nM, were plotted on a graph.
AP1 peptide was allowed to flow over at concentrations of 3.125 uM, 6.25 uM, 12.5 uM, 25 uM, and 50 uM for 3 min, and the same buffer was allowed to flow over for 3 min. For regeneration, 2 M NaCl was allowed to flow over for 1 min to wash the proteins remaining without dissociation. Specific binding values, obtained by subtracting the right channel value from the left channel value, in the respective concentrations, were plotted on a graph (see FIG. 8).
In the binding graph, the RU value expressing the amount of bound protein was measured by subtracting the blank (buffer) value and reference channel (right channel) value, using Scrubber software. The KD value was obtained from the binding RU (Req) values measured at the respective concentrations using KaleidaGraph software.
The experiment was conducted like in example <5-1>, and RU values shown for concentrations ranging from 0.65 nM to 41.6 nM were plotted on a graph using GraphPad prism 4 program.
For comparison of binding affinity between FTL-AP1 and FTL-AP1_AP1, surface plasmon resonance analysis was conducted. Analysis was conducted by the same method as in Example <5-1>. The binding of FTL-AP1 was analyzed at concentrations of 0.26 nM, 1.041 nM, 2.083 nM, and 4.166 nM, respectively, and the binding of FTL-AP1_AP1 was analyzed at concentrations of 0.520 nM, 1.041 nM, 2.083 nM, and 4.166 nM, respectively.

[4] = molecular target: integrin alphavbeta3 (Homo sapiens, UniProt P05106+P06756); assay: SPR analysis of binding affinity to integrin alphavbeta3; details: FIG. 16
Protocol: as §1, with “Then, 40 mM N-(3-dimethylaminopropyl)-N′-ethylcarbodiimide hydrochloride (EDC)/10 mM N-hydroxy-succinimide (NHS) were allowed to flow over each channel (left, right) of carboxymethyl dextran chip for 7 min for surface activation, and then 200 ul of the prepared alphavbeta3 protein was allowed to flow over the left channel for 7 min for immobilization. Here,” for “Here,”
The buffer (10 mM Hepes pH 7.4, 150 mM NaCl, 180 mM Histidine, 1 mM MgCl2, 0.005% Tween 20) was used through filtering and degassing. The wild type ferritin and the RGD-inserted ferritins were allowed to flow over at concentrations of 0.65 nM, 1.3 nM, 2.6 nM, 5.2 nM, 10.4 nM, 20.8 nM, and 41.6 nM, respectively, for 3 min, and the same buffer was allowed to flow over for 3 min. For regeneration, 2 M NaCl was allowed to flow over for 1 min to wash the proteins remaining without dissociation. […]
In the binding graph, the RU value expressing the amount of bound protein was measured by subtracting the blank (buffer) value and reference channel (right channel) value, using Scrubber software.

Sequence of integrin alphavbeta3 (P06756 31-1048): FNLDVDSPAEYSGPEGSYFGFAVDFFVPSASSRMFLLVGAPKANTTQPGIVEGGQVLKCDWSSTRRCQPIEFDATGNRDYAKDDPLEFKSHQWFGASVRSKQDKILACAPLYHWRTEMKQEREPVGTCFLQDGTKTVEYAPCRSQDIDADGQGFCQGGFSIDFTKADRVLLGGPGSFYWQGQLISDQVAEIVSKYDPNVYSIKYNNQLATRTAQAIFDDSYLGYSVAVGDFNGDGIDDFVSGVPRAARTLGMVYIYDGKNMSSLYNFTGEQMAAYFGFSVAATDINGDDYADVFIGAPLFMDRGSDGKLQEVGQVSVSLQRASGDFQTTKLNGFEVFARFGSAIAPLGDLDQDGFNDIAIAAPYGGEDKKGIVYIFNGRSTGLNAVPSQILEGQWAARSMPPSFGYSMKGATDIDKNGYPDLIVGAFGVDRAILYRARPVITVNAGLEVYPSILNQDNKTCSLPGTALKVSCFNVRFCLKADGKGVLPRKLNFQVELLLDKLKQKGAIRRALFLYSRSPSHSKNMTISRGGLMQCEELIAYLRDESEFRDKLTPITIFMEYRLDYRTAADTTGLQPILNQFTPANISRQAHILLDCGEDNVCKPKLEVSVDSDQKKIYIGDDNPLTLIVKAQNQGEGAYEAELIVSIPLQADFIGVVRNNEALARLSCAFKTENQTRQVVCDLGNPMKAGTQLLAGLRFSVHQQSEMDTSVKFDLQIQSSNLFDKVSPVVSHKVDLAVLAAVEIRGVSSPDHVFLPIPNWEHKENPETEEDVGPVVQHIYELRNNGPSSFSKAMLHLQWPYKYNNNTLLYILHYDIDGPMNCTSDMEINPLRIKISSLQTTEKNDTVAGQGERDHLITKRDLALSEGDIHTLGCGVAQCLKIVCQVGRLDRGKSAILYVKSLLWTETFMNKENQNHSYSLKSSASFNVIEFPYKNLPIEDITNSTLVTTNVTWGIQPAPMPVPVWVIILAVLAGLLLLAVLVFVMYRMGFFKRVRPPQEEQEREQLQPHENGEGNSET
Sequence of integrin alphavbeta3 (P05106 27-788): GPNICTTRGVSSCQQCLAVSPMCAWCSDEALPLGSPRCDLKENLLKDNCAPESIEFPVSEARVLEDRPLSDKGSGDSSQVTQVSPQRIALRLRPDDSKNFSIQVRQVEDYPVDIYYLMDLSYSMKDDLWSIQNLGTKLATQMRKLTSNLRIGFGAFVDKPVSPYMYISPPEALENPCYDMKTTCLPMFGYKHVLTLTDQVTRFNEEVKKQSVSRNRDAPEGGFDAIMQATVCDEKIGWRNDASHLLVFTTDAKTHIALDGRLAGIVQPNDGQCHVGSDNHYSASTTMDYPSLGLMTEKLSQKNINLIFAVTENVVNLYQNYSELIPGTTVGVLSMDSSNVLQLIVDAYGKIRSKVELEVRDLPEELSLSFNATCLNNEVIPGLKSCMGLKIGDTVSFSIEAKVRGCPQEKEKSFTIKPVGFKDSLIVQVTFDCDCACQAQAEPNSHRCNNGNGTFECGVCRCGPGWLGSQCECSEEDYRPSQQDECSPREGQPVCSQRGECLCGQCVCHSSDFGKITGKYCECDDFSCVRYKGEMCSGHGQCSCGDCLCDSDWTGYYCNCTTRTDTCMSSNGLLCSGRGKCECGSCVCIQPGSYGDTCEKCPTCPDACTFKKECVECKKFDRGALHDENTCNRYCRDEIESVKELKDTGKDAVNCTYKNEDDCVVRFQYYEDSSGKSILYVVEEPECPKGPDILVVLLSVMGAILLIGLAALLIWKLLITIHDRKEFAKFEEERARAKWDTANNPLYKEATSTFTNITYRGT

| Molecule | Koff [3] | Kon [3] | binding to integrin alphavbeta3 [4] | also measured |
| --- | --- | --- | --- | --- |
| wild type ferritin: human ferritin light chain (SEQ ID NO: 1) without AP1 insertion, control cage [reference compound] | – | – | – | binding to IL-4 receptor in A549 cells (FACS) ([1]; 400 nM, 4° C., 20 min, FIG. 5): did not bind to IL-4 receptor; binding to A549 cells / cell membrane (confocal microscopy) [2]: did not bind to A549 cells |
| B1 | 1.25 ± 0.4 × 10^−3 S^−1 | 1.22 ± 0.64 × 10^6 M^−1S^−1 | – | – |
| B2 | 3.8 × 10^−5 S^−1 | 8.26 × 10^5 M^−1S^−1 | – | amount bound to IL-4 receptor compared with FTL-AP1 (FACS) ([1]; at 400 nM and 200 nM, FIG. 13): larger amount than FTL-AP1 |
| B3 | – | – | bound to integrin alphavbeta3 in a concentration-dependent manner | – |
| B4 | – | – | bound to integrin alphavbeta3 in a concentration-dependent manner | – |
